Test results published in publication PMC3719173 (Nature structural & molecular biology, 2010).

T1: GST-Rev-erbα LBD (human)
T1 sequence (P20393 whole entry, looked up): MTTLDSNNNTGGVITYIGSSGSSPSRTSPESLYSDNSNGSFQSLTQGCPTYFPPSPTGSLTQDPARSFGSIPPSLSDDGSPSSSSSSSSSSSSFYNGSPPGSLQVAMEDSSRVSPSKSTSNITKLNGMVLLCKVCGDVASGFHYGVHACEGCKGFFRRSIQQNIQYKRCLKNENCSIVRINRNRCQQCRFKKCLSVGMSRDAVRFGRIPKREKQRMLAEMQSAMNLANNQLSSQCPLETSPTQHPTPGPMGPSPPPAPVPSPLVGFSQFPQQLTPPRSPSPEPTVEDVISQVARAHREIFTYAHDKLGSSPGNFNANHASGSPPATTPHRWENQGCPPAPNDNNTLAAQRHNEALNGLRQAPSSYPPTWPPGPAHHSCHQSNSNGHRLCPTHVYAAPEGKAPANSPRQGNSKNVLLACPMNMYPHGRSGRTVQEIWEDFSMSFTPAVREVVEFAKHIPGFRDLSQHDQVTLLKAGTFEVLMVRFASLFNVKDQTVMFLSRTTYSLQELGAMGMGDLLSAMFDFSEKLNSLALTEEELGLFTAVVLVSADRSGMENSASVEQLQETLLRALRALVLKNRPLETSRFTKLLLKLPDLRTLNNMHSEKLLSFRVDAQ

B1: human Rev-erbα LBD (281–614 Δ324–422) (domain or fragment, UniProt P20393 281-614, looked up)
chain: PEPTVEDVISQVARAHREIFTYAHDKLGSSPGNFNANHASGSPYPHGRSGRTVQEIWEDFSMSFTPAVREVVEFAKHIPGFRDLSQHDQVTLLKAGTFEVLMVRFASLFNVKDQTVMFLSRTTYSLQELGAMGMGDLLSAMFDFSEKLNSLALTEEELGLFTAVVLVSADRSGMENSASVEQLQETLLRALRALVLKNRPLETSRFTKLLLKLPDLRTLNNMHSEKLLSFRVDAQ

Test system: Rev-erbα LBD
Test: not given
Conditions: NCoR ID1 peptide; cited from earlier work

Molecule | Effect of heme binding on interaction of Rev-erbα LBD with ID1 peptide
C=CC1=C(C)c2cc3[n-]c(cc4[n-]c(cc5nc(cc1n2)C(C)=C5C=C)c(C)c4CCC(=O)O)c(CCC(=O)O)c3C.[Fe+2] [heme] | destabilizes the interaction of Rev-erbα with the ID1 peptide

Biological target: T1, GST-Rev-erbα LBD (human)
Test: FRET or BRET
Conditions: not given

IC50 | Molecule
50300 nM | NCoR (2040–2065) +1Ile2055 alanine mutant peptide (from UniProt O75376 2040-2065)
8100 nM | NCoR (2040–2065) +4Ile2058 alanine mutant peptide (from UniProt O75376 2040-2065)
19400 nM | NCoR (2040–2065) +5Ile2059 alanine mutant peptide (from UniProt O75376 2040-2065)
1900 nM | NCoR (2040–2065) +9F2063A peptide (from UniProt O75376 2040-2065)
250 nM | NCoR (2040–2065) −1H2054A peptide (from UniProt O75376 2040-2065)
600 nM | NCoR (2040–2065) −4Leu2051A peptide (from UniProt O75376 2040-2065)
570 nM | NCoR (2040–2065) −7Leu2048A peptide (from UniProt O75376 2040-2065)
540 nM | NCoR (2040–2065) −9His2046A peptide (from UniProt O75376 2040-2065)
220 nM | control wild type NCoR ID1 (2040–2065) peptide (from UniProt O75376 2040-2065)

Biological target: B1
Test: crystal structure
Conditions: not given

binding result | Molecule
binds | THRLITLADHICQIITQDFAR [NCoR CoRNR1 peptide (2045–2065)]

Biological target: the molecule itself
Test: crystal structure
Conditions: not given

Molecule | binding result
B1 | binds
